Residue numbers refer to the chain shown, from its start. Blank lines part the entries; values can stand above or below the binder they belong to.
Molecular target: T1, BCMA (Homo sapiens (Human), UniProt Q02223 1-54, limits assumed)
T1 sequence: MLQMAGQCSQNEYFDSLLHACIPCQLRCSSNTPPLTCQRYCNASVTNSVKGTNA
Assay: ELISA, format not described
Parameters: unit not given here

ELISA_avg: 14.5
B1: D-domain SEQ ID NO: 173 (designed binder)
chain: MGSWYEFWLRLSAISYRLQALGGSEAELAAFEKEIAAFESELQAYKGKGNPEVEWLRKEAAEIRSWLQAYRHN

ELISA_avg: 23.5
B2: D-domain SEQ ID NO: 151 (designed binder)
chain: MGSWVEFDMRLQAILERLRALGGSEAELAAFEKEIAAFESELQAYKGKGNPEVEHLRDSAAYIRLMLQAYRHN

ELISA_avg: 13.5
B3: D-domain SEQ ID NO: 152 (designed binder)
chain: B2 chain with D8N, M9A, Q12D, E16F, S59Q

ELISA_avg: 9.53
B4: D-domain SEQ ID NO: 166 (designed binder)
chain: MGSWMEFDERLWAIKKRLRALGGSEAELAAFEKEIAAFESELQAYKGKGNPEVEFLRHQAAYIRMLLQAYRHN

ELISA_avg: 11.7
B5: D-domain SEQ ID NO: 170 (designed binder)
chain: B2 chain with M9N, Q12Y, L15V, E16D, D58Q, S59K, M66I

ELISA_avg: 19.9
B6: D-domain SEQ ID NO: 164 (designed binder)
chain: B2 chain with V5S, D8V, M9F, Q12D, A13T, L15K, E16S, H55T, S59Q

ELISA_avg: 11.9
B7: D-domain SEQ ID NO: 155 (designed binder)
chain: B2 chain with V5I, M9Y, Q12K, E16H, H55G, S59K, L65F, M66L

ELISA_avg: 4.55
B8: D-domain SEQ ID NO: 161 (designed binder)
chain: B2 chain with V5Y, D8E, M9H, Q12K, L15V, E16S, R19G, S59K, L65Y

ELISA_avg: 14.9
B9: D-domain SEQ ID NO: 160 (designed binder)
chain: B2 chain with D8E, M9W, Q12E, L15V, E16V, S59K, L65Y

ELISA_avg: 10.1
B10: D-domain SEQ ID NO: 157 (designed binder)
chain: B2 chain with V5Y, D8Q, M9D, Q12S, L15T, E16T, H55L, S59K, L65F

ELISA_avg: 17.7
B11: D-domain SEQ ID NO: 159 (designed binder)
chain: B2 chain with D8E, M9Q, Q12H, L15V, E16V, K48G, H55N, S59Q, L65F

ELISA_avg: 18.6
B12: D-domain SEQ ID NO: 158 (designed binder)
chain: B2 chain with V5E, M9D, Q12N, L15V, E16Y, H55M, S59Q

ELISA_avg: 3.29
B13: D-domain SEQ ID NO: 168 (designed binder)
chain: B2 chain with V5Y, M9G, L15I, E16A, D58F, S59R, L65W, M66I

ELISA_avg: 7.33
B14: D-domain SEQ ID NO: 163 (designed binder)
chain: B4 chain with D8E, E9G, W12H, K16R, F55V, H58D, M65L

ELISA_avg: 16.9
B15: D-domain SEQ ID NO: 165 (designed binder)
chain: B4 chain with M5Y, W12S, K16L, F55V, H58A, M65A, L66I

ELISA_avg: 17.6
B16: D-domain SEQ ID NO: 156 (designed binder)
chain: B4 chain with M5Y, D8E, E9D, W12L, K16V, F55Y, H58D, M65F, L66M

ELISA_avg: 15.6
B17: D-domain SEQ ID NO: 153 (designed binder)
chain: B2 chain with V5M, D8N, M9V, Q12R, E16D, R19H, H55L, S59K, L65F

ELISA_avg: 6.06
B18: D-domain SEQ ID NO: 162 (designed binder)
chain: B4 chain with D8K, E9H, W12A, K15T, K16F, F55L, H58D, Q59K, M65L

ELISA_avg: 13.9
B19: D-domain SEQ ID NO: 154 (designed binder)
chain: B2 chain with V5I, M9T, Q12A, L15V, E16H, H55L, S59K, L65Y

ELISA_avg: 5.4
B20: D-domain SEQ ID NO: 167 (designed binder)
chain: B2 chain with V5H, M9G, Q12S, L15K, E16R, R19W, S59Q, L65Y

ELISA_avg: 11.8
B21: D-domain SEQ ID NO: 169 (designed binder)
chain: MGSWFEFDKRLYAIIHRLRALGGSEAELAAFEKEIAAFESELQAYKGKGNPEVEKLRYKAAIIRLYLQAYRHN

ELISA_avg: 3.87
B22: D-domain SEQ ID NO: 172 (designed binder)
chain: MGSWNEFRLRLWAITERLRALGGSEAELAAFEKEIAAFESELQAYKGKGNPEVECLRAEAAWIRTMLQAYRHN

ELISA_avg: 7.34
B23: D-domain SEQ ID NO: 171 (designed binder)
chain: MGSWIEFHQRLNAIFNRLRALGGSEAELAAFEKEIAAFESELQAYKGKGNPEVEWLRHHAAYIREMLQAYRHN

— patent publication US20250026849A1 (ARCELLX, published 2025)
